Measurements: patent US20110086089A1, “USE OF P27KIP1 FOR THE PREVENTION AND TREATMENT OF HEART FAILURE” (UNIVERSITY HEALTH NETWORK, priority 2008, published 2011)
Marks after values point to notes of the source that are not given here.

B1: CK2-α′: recombinant active TAT-conjugated CK2-alpha-prime protein with NES of HIV-1 Rev (protein)
chain: MPGPAAGSRARVYAEVNSLRSREYWDYEAHVPSWGNQDDYQLVRKLGRGKYSEVFEAINITNNERVVVKILKPVKKKKIKREVKILENLRGGTNIIKLIDTVKDPVSKTPALVFEYINNTDFKQLYQILTDFDIRFYMYELLKALDYCHSKGIMHRDVKPHNVMIDHQQKKLRLIDWGLAEFYHPAQEYNVRVASRYFKGPELLVDYQMYDYSLDMWSLGCMLASMIFRREPFFHGQDNYDQLVRIAKVLGTEELYGYLKKYHIDLDPHFNDILGQHSRKRWENFIHSENRHLVSPEALDLLDKLLRYDHQQRLTAKEAMEHPYFYPVVKEQSQPCADNAVLSSGLTAAR
modifications: left off: small tags and cut ends
B2: p27ΔC: TAT-conjugated p27 deficient in binding to CK2-alpha-prime (p27.1-86), serving as negative control (protein)
chain: MSNVRVSNGSPSLERMDARQADHPKPSACRNLFGPVDHEELTRDLEKHCRDMEEASQRKWNFDFQNHKPLEGKYEWQEVEKGSLPE
modifications: left off: small tags and cut ends

Experiments:
[1] = tested on: p27 phosphorylation at S83 and T187 in cardiomyocytes; assay: p27 phosphorylation at S83 and T187 in Ang II-treated cardiomyocytes (Western blot); assay type: cell-based, rat; details: Ang II 4 h; lentiviruses 72 h; DMAT 20 μM pre-incubated 30 min; TAT-conjugated CK2-alpha-prime 2.5 μg/ml 1 h
Protocol: FIG. 2 is a series of graphs and blots showing Ang II triggers CK2-alpha-prime-dependent phosphorylation of p27 on S83 and T187 in cardiomyocytes. (A) p27 is a substrate of CK2-alpha-prime. […] In vitro kinase assays employing recombinant wt.p27 (1 μg) or phosphorylation site mutants of p27 as substrates were incubated with recombinant CK2-alpha-prime/beta (200 ng). Aliquots of the reaction mixtures were resolved on SDS-PAGE, electrotransferred to nitrocellulose membranes, and the amount of incorporated radioactive [^32P}-label into p27 was quantified with a PhosphorImager and ImageJ software. Individual membranes were probed with anti-CK2-alpha-prime, anti-p27 (input), or phosphorylation site specific antibodies to p27. […] Samples were resolved on SDS-PAGE, transferred to nitrocellulose-membranes, and the amount of incorporated radioactive label into histones was quantified with a PhosphorImager and ImageJ. The input amount of each CK2-alpha-prime and p27 protein used in the kinase reaction mixtures was monitored by immunoblot analysis employing anti-His. […] Biochemically fractionated extracts corresponding to 4×10^5 cells per lane were analyzed by immunoblotting employing antibodies as indicated on the left. […]

WT mice = assay: Chronic Ang II infusion for 14 days with daily TAT.protein injection, WT mice; assay type: in vivo; details: for FS / LVEDD / LVEF / LVESD / PWD: WT, echocardiography at 14 days
Source text: FIG. 5 is a series of graphs, blots and cell stainings showing CK2-alpha-prime is important for Ang II action in vivo. […] Transduction of recombinant active CK2-alpha-prime evokes cardiac hypertrophy in the absence of Ang II. (A) Heart-weight corrected for body-weight (left panel) and Masson-stain of myocardial cross sections (right panel). Mean±s.e.m., n=6-8. #P<0.01 vs sham saline. *P<0.01 vs sham saline. Scale bar, 2 mm. (B) Cell size analysis of adult cardiac myocytes isolated from 8-weeks-old mice. One hundred cells from three different mice were analyzed per group. Mean±s.e.m. #P<0.01 vs sham saline. *P<0.01 vs sham saline. **P<0.01 vs Ang II. (c) Determination of ANF/BNP mRNA levels by qRT-PCR. Mean±s.e.m., n=6-8. *P<0.05 vs sham saline. **P<0.05 vs Ang II. #P<0.05 vs sham saline. (D) Visualization of ectopic TAT-conjugated p27deltaPi by indirect immunofluorescence microscopy employing anti-His tag antibodies. Scale bar, 200 μm. (E) Left ventricular extracts (2-3 mg) were subjected to anti-CK2-alpha-prime immunocomplex kinase assays employing histone H1 substrate. Aliquots of kinase reactions were subjected to immunoblotting using antibodies as indicated on the left (top and middle panel). Levels of endogenously expressed or transduced proteins in total left ventricular heart tissue samples (60 μg) were analyzed by immunoblotting (bottom panel). Experiments to (E) were done twice with similar results.
To define whether CK2-alpha-prime -directed p27 turnover plays a role in vivo, the inventors chronically infused Ang II^72 and intraperitoneally injected recombinant TAT-conjugated CK2-alpha-prime and p27 variants in WT and p27^−/− mice (FIG. 9). […] These mice had normal LVEDD and LVESD when compared to Ang II-infused littermates (Table 3). […] CK2-alpha-prime activity and p27 destabilization were similar to their non-transduced Ang II-treated siblings (FIG. 5E).
(§1) Spontaneously beating cardiomyocytes from heart ventricles of neonatal rats were cultured and subjected to treatment with angiotensin II (Ang II). DMAT (2-dimethylamino-4,5,6,7-tetrabromo-1H-benzimidazol), DMSO, lactacystin and LLM were obtained from Calbiochem. Ang II was purchased from Sigma. Animal usage was in accordance with approved institutional animal care guidelines. Age-matched male WI C57BL/6 and p27^−/− mice were used in this study. For results shown in FIGS. 1 to 9: Ang II was chronically infused subcutaneously by osmotic pumps (model 2000, Alzet) at a dose of 1.4 μg/kg per minute for 14 days. TAT.proteins (10 mg/kg) were injected intraperitoneally once daily for 14 days. For results shown in FIGS. 10 to 12: Ang II was chronically infused subcutaneously by osmotic pumps (model 2000, Alzet) at a dose of 0.7 μg/kg per minute for 16 days. TAT.proteins (20 mg/kg) were injected intraperitoneally once daily for 8 days starting at day 8. Thoracic aortic banding (TAB) and pressure gradient measurements were performed as described^39.

p27 KO mice = assay: Chronic Ang II infusion for 14 days with daily TAT.protein injection, p27 KO mice; assay type: in vivo; details: p27 KO, echocardiography at 14 days
Protocol: (A) Heart-weight corrected for body-weight (left panel) and Masson-stain of myocardial cross sections (right panel). Mean±s.e.m., n=6-8. *P<0.01 vs sham saline. **P<0.01 vs Ang II. Scale bar, 2 mm. (B) Cell size analysis of adult cardiac myocytes isolated from 8-weeks-old mice. One hundred cells from three different mice were analyzed per group. Mean±s.e.m. *P<0.01 vs sham saline. **P<0.01 vs Ang II. (C) Determination of ANF/BNP mRNA levels by qRT-PCR. Mean±s.e.m., n=6-8. *P<0.01 vs sham saline. **P<0.01 vs Ang II. (D) CK2-alpha-prime-dependent kinase activity determined in whole left ventricular tissue samples. One typical result of two independent experiments is shown. (E, F) Ang II action induces apoptosis in p27^−/− mice. (E) Quantification of apoptotic cardiac myocytes (white arrowheads) by in situ TUNEL and GATA4 immunofluorescence histochemistry of left ventricular specimen. Mean±s.e.m., n=4. *P<0.01 vs sham saline. **P<0.05 vs sham saline. #P<0.01. (F) Determination of caspase 3 activity in total left ventricular heart tissue samples. Mean±s.e.m., n=4. *P<0.05 vs sham saline. #P<0.01. (G) Model for CK2-alpha-prime-dependent regulation of cardiac hypertrophy through phosphorylation of p27. Hypertrophic signals stimulate CK2-alpha-prime kinase that phosphorylates p27 at S83 and T187. Phosphorylation of p27 impairs its ability to bind to and inhibit […] activity. Subsequently, p27 is proteasomally degraded allowing hypertrophic growth to proceed.
Next, the inventors examined the effect of transduced proteins on cardiac hypertrophy in p27^−/− mice. Elimination of p27 gene function in these animals completely abrogated the ability of kd.CK2-alpha-prime to block cardiac hypertrophy (FIG. 6A-D). In contrast, hypertrophic responses to Ang II were abolished by p27deltaPi injections. Thus, reconstitution of p27 protein abundance in the myocardium of p27^−/− mice was accompanied by inhibition of Ang II action. Moreover, the inventors observed a marked increase in the number of TUNEL-positive cardiomyocyte nuclei in Ang II-infused p27^−/− mice (FIG. 6E,F) as compared to the WT controls. […] This was in direct contrast to the effect seen by ectopic kd.CK2-alpha-prime consistent with the inventors' previous work showing that CK2 is cardioprotective^73,74.
as §1

[2] = Ang infusion 1.4 μg/kg per minute 14 days, TAT.protein 10 mg/kg i.p. once daily
[3] = saline infusion, TAT.protein 10 mg/kg i.p. once daily 14 days
[4] = saline infusion, TAT.protein 10 mg/kg i.p. once daily 14 days, 8-weeks of age

| Molecule | FS (WT mice; [2]) | LVEDD (WT mice; [2]) | LVEF (WT mice; [2]) | LVESD (WT mice; [2]) | PWD (WT mice; [2]) | LVEDD (WT mice; [3]) | LVEF (WT mice; [3]) | LVESD (WT mice; [3]) | PWD (WT mice; [3]) | FS (WT mice; [4]) | other results |
| --- | --- | --- | --- | --- | --- | --- | --- | --- | --- | --- | --- |
| B1 | 55 ± 3.9* % | 4.6 ± 0.1* mm | 82 ± 2.8* % | 2.4 ± 0.1* mm | 1.3 ± 0.1* mm | 4.5 ± 0.2^# mm | 83 ± 3.1^# % | 2.4 ± 0.2^# mm | 1.3 ± 0.2^# mm | 52 ± 2.0^# % | S83/T187 phosphorylation of p27 in cardiomyocytes [1]: rescued the detrimental impact of siCK2-alpha-prime on p27 phosphorylation; cardiac hypertrophy in the absence of Ang II (WT mice; WT mice, saline, TAT.protein 10 mg/kg i.p. once daily): did induce cardiac hypertrophy |
| B2 | 54 ± 3.2% | 4.5 ± 0.2 mm | 81 ± 3.5% | 2.3 ± 0.1 mm | 1.2 ± 0.2 mm | 3.6 ± 0.2 mm | 69 ± 2.1% | 1.4 ± 0.1 mm | 0.7 ± 0.1 mm | 41 ± 1.8% | FS (p27 KO mice; [2]): 56 ± 3.9%; LVEDD (p27 KO mice; [2]): 4.6 ± 0.2 mm; LVEF (p27 KO mice; [2]): 82 ± 3.8%; LVESD (p27 KO mice; [2]): 2.3 ± 0.2 mm; PWD (p27 KO mice; [2]): 1.1 ± 0.1 mm; FS (p27 KO mice; [3]): 42 ± 2.4%; LVEDD (p27 KO mice; [3]): 3.7 ± 0.2 mm; LVEF (p27 KO mice; [3]): 73 ± 2.6%; LVESD (p27 KO mice; [3]): 1.3 ± 0.1 mm; PWD (p27 KO mice; [3]): 0.6 ± 0.2 mm; cardiac hypertrophy to Ang II (heart/body weight ratio, myocyte area, ANF/BNP mRNA) (WT mice; Ang II-treated WT mice, TAT.proteins 10 mg/kg i.p. once daily 14 days): No anti-hypertrophic effect |
